Laboratory results as given in patent publication US20230220081A1 (published 2023).

Molecular target: 21480B
Assay: Octet

Kd: 8.1 nM
B1: IL2Rbeta (receptor)
chain: AVNGTSQFTCFYNSRANISCVWSQDGALQDTSCQVHAWPDRRRWNQTCELLPVSQASWACNLILGAPDSQKLTTVDIVTLRVLCREGVRWRVMAIQDFKPFENLRLMAPISLQVVHVETHRCNISWEISQASHYFERHLEFEARTLSPGHTWEEAPLLTLKQKQEWICLETLTPDTQYEFQVRVKPLQGEFTTWSPWSQPLAFRTKPAALGKD
